# Non-standard residues stand in square brackets, D forms with d. No end group written: not given here. AEEA = NCCOCCOCC(=O)O
# B1: CAP37-derived peptide 120-146 QR (wild-type) (peptide)
# peptide: GTRCQVAGWGSQRSGGRLSRFPRFVNV
# B2: CAP37-derived peptide 120-146 WR (mutant) (peptide)
# peptide: GTRCQVAGWGSWRSGGRLSRFPRFVNV
# B3: 5RMP-modified CAP37-derived peptide 120-146 QR (peptide)
# peptide: [AEEA][AEEA]RRRRGTRCQVAGWGSQRSGGRLSRFPRFVNVR
# B4: CAP37-derived peptide 120-146 WR 5RMP (peptide)
# peptide: [AEEA][AEEA]RRRRGTRCQVAGWGSWRSGGRLSRFPRFVNVR
# B5: CG-derived peptide CG119-144 (wild-type) (peptide)
# peptide: GTLCTVAGWGRVSMRRGTDTLREVQL
# B6: CG-derived mutant peptide CG119-144 D137R (peptide)
# peptide: GTLCTVAGWGRVSMRRGTRTLREVQL
# B7: cathepsin G (CG), full-length (enzyme, human, UniProt P08311 21-244, looked up)
# chain: IIGGRESRPHSRPYMAYLQIQSPAGQSRCGGFLVREDFVLTAAHCWGSNINVTLGAHNIQRRENTQQHITARRAIRHPQYNQRTIQNDIMLLQLSRRVRRNRNVNPVALPRAQEGLRPGTLCTVAGWGRVSMRRGTDTLREVQLRVQRDRQCLRIFGSYDPRRQICVGDRRERKAAFKGDSGGPLLCNNVAHGIVSYGKSSGVPPEVFTRVSSFLPWIRTTMRS
# B8: cationic antimicrobial protein of 37 kDa (CAP37), full-length (enzyme, human, UniProt P20160 27-248, looked up)
# chain: IVGGRKARPRQFPFLASIQNQGRHFCGGALIHARFVMTAASCFQSQNPGVSTVVLGAYDLRRRERQSRQTFSISSMSENGYDPQQNLNDLMLLQLDREANLTSSVTILPLPLQNATVEAGTRCQVAGWGSQRSGGRLSRFPRFVNVTVTPEDQCRPNNVCTGVLTRRGGICNGDGGTPLVCEGLAHGVASFSLGPCGRGPDFFTRVALFRDWIDGVLNNPGP
# B9: 5RMP-modified CAP37-derived peptide 20-44 CC (peptide)
# peptide: [AEEA][AEEA]RRRRNQGRHFCGGALIHARFVMTAASCFQR
# modifications: cysteine pairing not given here
# notes: also called 20-44 CC 5RMP
# B10: CG-derived mutant peptide CG119-144 E141PR (peptide)
# peptide: GTLCTVAGWGRVSMRRGTDTLRPRVQL
# B11: CAP37-derived peptide 20-44 CC (wild-type) (peptide)
# peptide: NQGRHFCGGALIHARFVMTAASCFQ
# notes: also called CAP3720-44
# B12: CG-derived mutant peptide CG119-144 ΔR129V130 (peptide)
# peptide: GTLCTVAGWGSMRRGTDTLREVQL
# Legend:
# [1] = biological target: T1, amyloid β1-42 (Aβ1-42) (UniProt P05067 672-713); assay: ELISA, peptide coated at 5 µg/ml, 150 nM Aβ1-42 added, anti-Aβ antibody, A492 (FIG. 2)
# T1 construct: domain: Aβ1-42; Added in solution at 150 nM in the ELISA; Aβ1-42 is a fragment of it; also called amyloid beta; the 42-amino acid form of Aβ
# Protocol: (§1) BSA was from Sigma Aldrich. […] Plate coating was done at room temperature for 2 hours with shaking and then at 4° C. overnight. Plates were washed three times in PBST (PBS+0.05% tween), then blocked with 3% BSA in PBST for 1 hour at room temperature with shaking. […] Plates were then washed 4 times with PBST and monoclonal mouse anti-amyloid precursor protein/amyloid beta antibody, purchased from Cell Signaling Technology was added at a 1:500 dilution in 1% BSA in PBST and incubated for 1 hour at room temperature with shaking. Plates were washed 4× in PBST and donkey anti mouse HRP-conjugated secondary antibody from Jackson ImmunoResearch Laboratories was added at 1:10,000 in PBST and incubated 1 hour at room temperature with shaking, then washed 4 times in PBST. […] Sulfuric acid (5N) was added to each well to stop the reaction, and the absorbance at 492 nm was read on a Biotek Synergy II plate reader.
# [2] = biological target: T1, amyloid β1-42 (Aβ1-42); assay: cell-based or functional assay
# [3] = biological target: T1, amyloid β1-42 (Aβ1-42); assay: ELISA, peptide coated at 5 µg/ml, 150 nM Aβ1-42 added, anti-Aβ antibody, A492 (FIG. 3)
# Protocol: as §1
# [4] = biological target: T1, amyloid β1-42 (Aβ1-42); assay: ELISA, peptide coated, Aβ1-42 added (FIG. 21)
# Protocol: as §1
# [5] = biological target: T1, amyloid β1-42 (Aβ1-42); assay: ELISA, peptide coated, Aβ1-42 added, anti-Aβ antibody, absorbance at 492 nm (FIG. 21)
# Protocol: as §1
# T1 sequence (P05067 672-713 limits assumed): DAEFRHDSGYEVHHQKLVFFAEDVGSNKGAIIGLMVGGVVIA
binder,measurement,setting,value
B1,binding result,[1],binds
B2,IC50 of inhibition of Aβ1-42 fibrillation (Thioflavin T fluorescence),[2],~1 µM
same,molar ratio peptide/Aβ1-42 at the IC50 of fibrillation,[2],~0.1 molar ratio
B3,binding result,[3],binds
B4,IC50 of inhibition of Aβ1-42 fibrillation (Thioflavin T fluorescence),[2],~1 µM
same,molar ratio peptide/Aβ1-42 at the IC50 of fibrillation,[2],~0.1 molar ratio
B5,binding result,[4],binds
B6,IC50 of inhibition of Aβ1-42 fibrillation (Thioflavin T fluorescence),[2],3.1 µM
same,molar ratio peptide/Aβ1-42 at the IC50 of fibrillation,[2],0.33 molar ratio
B7,IC50 of inhibition of Aβ1-42 fibrillation (Thioflavin T fluorescence),[2],0.0038 µM
same,fold increase of the fibrillation IC50 in the presence of chymostatin,[2],17 fold
same,molar ratio CG/Aβ1-42 at the IC50 of fibrillation,[2],0.00038 molar ratio
B8,IC50 of inhibition of Aβ1-42 fibrillation (Thioflavin T fluorescence),[2],0.876 µM
same,fold increase of the fibrillation IC50 in the presence of PMSF,[2],3.5 fold
same,molar ratio CAP37/Aβ1-42 at the IC50 of fibrillation,[2],0.091 molar ratio
B9,binding result,[3],binds
B10,binding result,[4],binds
B11,binding result,[1],binds
B12,binding result,[5],no binding
